# Measurements taken from publication PMC5750218, “Protein-inspired antibiotics active against vancomycin- and daptomycin-resistant bacteria” (Nature Communications, 2018).
# Where two headings read alike, the source gives them in different places.
# Tests used:
# Cytotoxicity MTT assay = format: cell-based, human; conditions: human
# Method in brief: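 Duplicate wells were used, with viability calculated against untreated and positive-control wells. Readout was MTT reduction: 2 h with 0.4 mg mL^−1 MTT, formazan dissolved in DMSO, absorbance at 570 nm. Before that, compound was applied 24 h at 37 °C over 100–0.046 µM (threefold dilutions) to HepG2 or HEK293 cells seeded 24 h earlier in DMEM/1% FBS.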
# Haemolysis assay = format: cell-based; conditions: human; for hemolysis at 3 h: whole blood
# Experimental: Haemolytic activity was measured as previously described with slight modifications, [45]. Fresh human venal blood was collected from healthy volunteers and pretreated with the anticoagulant sodium citrate. Serial twofold dilutions of each antibiotic, dissolved in 0.9% NaCl solution, were added to fresh human whole blood (50% final, vol:vol) to the final volume of 80 μL and incubated at 37 °C for 3 h on a horizontal shaker at 200 rpm. For negative and positive controls, human whole blood in 0.9% NaCl solution (A blank) and in sdH2O (A water) were used, respectively. After incubation, both test and A blank were mixed with 1 mL 0.9% NaCl solution, or sdH2O for the complete […] A water. After centrifugation of samples at 2500 rpm (700 × g) for 5 min, the release of haemoglobin was monitored by measuring the absorbance (A sample) of the supernatant at 540 nm using BMG Labtech PolarStar Omega multimode reader. The percentage of haemolysis was calculated according to the equation: %haemolysis=Asample-Ablank∕Awater-Ablank×100
# [1] = In vivo pharmacokinetics in mice; conditions: mouse; for level at […]: 0.250 h; for level at 0.5 h: 0.500 h; for MRT inf: read-out: MRT0-inf; for MRT last: read-out: MRT0-last
# [2] = test system: Bacillus subtilis ATCC 6633; test: microbe, parasite or virus in culture; format: cell-based; conditions: ATCC 6633, 48 h
# [3] = test system: S. aureus ATCC 43300 MRSA; test: microbe, parasite or virus in culture; format: cell-based, Staphylococcus aureus; conditions: Staphylococcus aureus, 24 h, read-out: MIC S. aureus ATCC 43300 MRSA
# Experimental: (§1) The compounds, along with standard antibiotics were serially diluted twofold across the wells of 96-well non-binding surface (NBS) polystyrene plates (Corning 3641). […] Standards ranged from 64 to 0.03 µg mL^−1 and compounds from 8 to 0.003 µg mL^−1 with final assay volumes of 100 µL per well. Gram-positive bacteria were cultured in Mueller Hinton broth (MHB) (Bactolaboratories, Cat. no. 211443) at 37 °C overnight. A sample of each culture was then diluted 40-fold in fresh MHB and incubated at 37 °C for 2–3 h. The resultant mid-log phase cultures were added to the compound-containing 96-well plates to give a final cell density of 5 × 10^5 colony forming unit (CFU) mL^−1. All the plates were covered and incubated at 37 °C for 24 h. MICs were the lowest concentration showing no visible growth.
# S. pneumoniae ATCC 33400 = test: microbe, parasite or virus in culture; format: cell-based, Streptococcus pneumoniae; conditions: Streptococcus pneumoniae, ATCC33400, 24 h, read-out: MIC S. pneumoniae ATCC 33400
# Experimental: as §1
# [4] = test system: S. pneumoniae ATCC 700677 MDR; test: microbe, parasite or virus in culture; format: cell-based, Streptococcus pneumoniae; conditions: Streptococcus pneumoniae, ATCC700677, 24 h, read-out: MIC S. pneumoniae ATCC 700677 MDR
# Experimental: as §1
# [5] = male, CD1, plasma, 2 mg/kg IV, read-out: Plasma concentration, Mean IV
# [6] = male, CD1, plasma, 10 mg/kg SC, read-out: Plasma concentration, Mean SC
structure (smiles),measurement,setting,value
"CCCCCCCCCCC(=O)N[C@@H](CCCCN)C(=O)N[C@@H](CCCCN)C(=O)N[C@@H](CCCCNC(=O)[C@H]1NC(=O)[C@H]2NC(=O)[C@H](NC(=O)[C@@H]3NC(=O)[C@H](CC(N)=O)NC(=O)[C@H](NC(=O)[C@@H](CC(C)C)NC)[C@H](O)c4ccc(c(Cl)c4)Oc4cc3cc(c4O[C@@H]3O[C@H](CO)[C@@H](O)[C@H](O)[C@H]3O[C@H]3C[C@](C)(N)[C@H](O)[C@H](C)O3)Oc3ccc(cc3Cl)[C@H]2O)c2ccc(O)c(c2)-c2c(O)cc(O)cc21)C(=O)O [Compound 19, nC10CO-KK-K(Vancomycin)-OH]",CC50 at 24 h,Cytotoxicity MTT assay,355 µM
same,hemolysis at 3 h,Haemolysis assay; 100 µg mL-1,0.7%
same,hemolysis at 3 h,Haemolysis assay; 1600 µg mL-1,0.5%
same,level at 5 min,"[1]; male, CD1, plasma, 2 mg/kg IV, 5 min, n=3, read-out: Plasma concentration, Mean IV",9370 ng/mL
same,level at […],[1]; [5],6970 ng/mL
same,level at 0.5 h,[1]; [5],6060 ng/mL
same,level at 1 h,[1]; [5],4860 ng/mL
same,level at 2 h,[1]; [5],2640 ng/mL
same,level at 4 h,[1]; [5],1450 ng/mL
same,level at 8 h,[1]; [5],137 ng/mL
same,level at 24 h,[1]; [5],5.7 ng/mL
same,level at […],"[1]; male, CD1, plasma, 10 mg/kg SC, n=3, read-out: Plasma concentration, Mean SC",2650 ng/mL
same,level at 0.5 h,[1]; [6],5130 ng/mL
same,level at 1 h,[1]; [6],8790 ng/mL
same,level at 2 h,[1]; [6],9160 ng/mL
same,level at 4 h,[1]; [6],7370 ng/mL
same,level at 8 h,[1]; [6],2380 ng/mL
same,level at 24 h,[1]; [6],124 ng/mL
same,AUC0-inf/AUC0-last,[1]; IV 2 mg kg-1,100%
same,Tlast,[1]; IV 2 mg kg-1,18.7 h
same,AUC0-inf/AUC0-last,[1]; SC 10 mg kg-1,101%
same,Tlast,[1]; SC 10 mg kg-1,24 h
same,bioavailability,"[1]; plasma, subcutaneous, SC 10 mg kg-1 vs IV 2 mg kg-1",71.8%
same,AUC(0-inf),"[1]; plasma, IV 2 mg kg-1",16900 ng·h/mL
same,AUC(0-t),"[1]; plasma, IV 2 mg kg-1",16800 ng·h/mL
same,C0,"[1]; plasma, IV 2 mg kg-1",10900 ng/mL
same,clearance,"[1]; plasma, IV 2 mg kg-1",1.98 mL/min/kg
same,half-life,"[1]; plasma, IV 2 mg kg-1",2.22 h
same,MRT inf,"[1]; plasma, IV 2 mg kg-1",2.26 h
same,MRT last,"[1]; plasma, IV 2 mg kg-1",2.2 h
same,Vd,"[1]; plasma, IV 2 mg kg-1, read-out: Vdss",0.267 L/kg
same,AUC(0-inf),"[1]; plasma, SC 10 mg kg-1",60500 ng·h/mL
same,AUC(0-t),"[1]; plasma, SC 10 mg kg-1",59900 ng·h/mL
same,Cmax,"[1]; plasma, SC 10 mg kg-1",9970 ng/mL
same,Tmax,"[1]; plasma, SC 10 mg kg-1",1.67 h
same,half-life,"[1]; plasma, SC 10 mg kg-1",3.49 h
same,MRT inf,"[1]; plasma, SC 10 mg kg-1",5.59 h
same,MRT last,"[1]; plasma, SC 10 mg kg-1",5.32 h
same,Ac2Kaa concentration required to neutralise MIC activity,[2],100 µg/mL
same,MIC,[2],≤ 0.004 µg/mL
"CCCCCCCCCC(=O)N[C@@H](Cc1c[nH]c2ccccc12)C(=O)N[C@H](CC(N)=O)C(=O)N[C@@H](CC(=O)O)C(=O)N[C@@H]1C(=O)NCC(=O)N[C@@H](CCCN)C(=O)N[C@@H](CC(=O)O)C(=O)N[C@H](C)C(=O)N[C@@H](CC(=O)O)C(=O)NCC(=O)N[C@H](CO)C(=O)N[C@@H]([C@H](C)CC(=O)O)C(=O)N[C@@H](CC(=O)c2ccccc2N)C(=O)O[C@@H]1C [Compound 4, Daptomycin]",MIC,[3]; 1% Survanta,> 8 µg/mL
same,MIC,[3]; 5% Survanta,> 8 µg/mL
same,MIC,[3]; no added Survanta,2 µg/mL
same,MIC,S. pneumoniae ATCC 33400; 1% Survanta,> 8 µg/mL
same,MIC,S. pneumoniae ATCC 33400; 5% Survanta,> 8 µg/mL
same,MIC,S. pneumoniae ATCC 33400; no added Survanta,2 to 4 µg/mL
same,MIC,[4]; 1% Survanta,> 8 µg/mL
same,MIC,[4]; 5% Survanta,> 8 µg/mL
same,MIC,[4]; no added Survanta,4 µg/mL
same,CC50 at 24 h,Cytotoxicity MTT assay,> 500 µM
same,"hemolysis at 3 h, 25 µg mL-1",Haemolysis assay; % Human Whole Blood Haemolysis,0%
same,"hemolysis at 3 h, 50 µg mL-1",Haemolysis assay; % Human Whole Blood Haemolysis,0.4%
same,"hemolysis at 3 h, 100 µg mL-1",Haemolysis assay; % Human Whole Blood Haemolysis,0%
same,"hemolysis at 3 h, 200 µg mL-1",Haemolysis assay; % Human Whole Blood Haemolysis,0.3%
same,"hemolysis at 3 h, 400 µg mL-1",Haemolysis assay; % Human Whole Blood Haemolysis,0.9%
same,"hemolysis at 3 h, 800 µg mL-1",Haemolysis assay; % Human Whole Blood Haemolysis,0.3%
same,"hemolysis at 3 h, 1600 µg mL-1",Haemolysis assay; % Human Whole Blood Haemolysis,1.6%
